{"source": "paper PMC6918676", "biological_target": "full length Trk-A with a C-terminal (GGS)5 linker and eYFP or mTurquoise (human) (UniProt P04629)", "assay": "FRET or BRET", "data": [{"substance": "full length Trk-A with a C-terminal (GGS)5 linker and eYFP or mTurquoise (from UniProt P04629 33-796) (receptor)", "values": [{"measurement": "stoichiometry N", "value": 2}]}]}
